Source: PMC4845985

Assays:
[1] = target: fluorescein-labelled hypusine-containing human eIF5A^C22A,C38A,C73A,C129A,T142C (human) (UniProt P63241); assay: fluorescence polarisation; ribosomal complex titrated into 5-10 nM eIF5A-fl; 20 mM Hepes pH 7.5, 100 mM KOAc, 2.5 mM Mg(OAc)2, 1 mM DTT, 15 μM BSA; 30°C 30 min
[2] = target: human 60S ribosomal subunit (human (endogenous in HeLa)); assay: fluorescence polarisation; competition: non-labeled eIF5A titrated (from 5 μM) into preformed ribosome-eIF5A-fl, ribosome 50 nM; same buffer, 30°C 30 min; apparent Ki
[3] = target: human reconstituted 80S ribosome with Met-tRNAi^Met (40S+60S+Met-tRNAi^Met) (human (endogenous in HeLa)); assay: as above
[4] = target: human reconstituted 80S ribosome (40S+60S) (human (endogenous in HeLa)); assay: as above
[5] = target: yeast pre-assembled 80S ribosome (yeast) (UniProt P26321); assay: as above
[6] = target: human ribosomes (complex not specified) (human (endogenous in HeLa)); assay: fluorescence polarisation; yeast eIF5A with human ribosomes by anisotropy change; data not shown
[7] = target: fluorescein-labelled hypusine-containing human eIF5A^C22A,C38A,C73A,C129A,T142C (human) (UniProt P63241); assay: fluorescence polarisation; yeast 80S titrated into eIF5A-fl in the presence of saturating eEF2 (1 μM); same buffer, 30°C
[8] = target: yeast pre-assembled 80S ribosome (yeast) (UniProt P26321); assay: fluorescence polarisation; competition: non-labeled yeast eIF5A titrated into preformed 80S-eIF5A-fl in the presence of saturating eEF2

Molecule: human 40S ribosomal subunit (complex)
- Kd [1]: > 1700 nM

Molecule: human 60S ribosomal subunit (complex)
- Kd [1]: 128 nM

Molecule: human reconstituted 80S ribosome (40S+60S) (complex)
- Kd [1]: 13 nM

Molecule: human reconstituted 80S ribosome with Met-tRNAi^Met (40S+60S+Met-tRNAi^Met) (complex)
- Kd [1]: 7 nM

Molecule: non-hypusine-containing human eIF5A^T142C (lysine-containing) (from UniProt P63241 1-154) (natural protein)
- Ki [2]: 385 nM

Molecule: non-labeled hypusine-containing human eIF5A (from UniProt P63241 1-154) (natural protein)
- Ki [3]: < 5 nM
- Ki [4]: 12 nM
- Ki [5]: < 5 nM
- Ki [2]: 16 nM

Molecule: yeast eIF5A tested on human ribosomes (data not shown) (from UniProt P23301 1-157) (natural protein)
- affinity (constant not named) [6]: > 2000 nM

Molecule: yeast pre-assembled 80S ribosome (from UniProt P26321 1-297) (complex)
- Kd [1]: 10 nM
- Kd in the presence of saturating eEF2 [7]: 41 nM

B1: yeast eIF5A^C39A (natural protein)
chain: MSDEEHTFETADAGSSATYPMQCSALRKNGFVVIKSRPAKIVDMSTSKTGKHGHAKVHLVAIDIFTGKKLEDLSPSTHNMEVPVVKRNEYQLLDIDDGFLSLMNMDGDTKDDVKAPEGELGDSLQTAFDEGKDLMVTIISAMGEEAAISFKEAARTD
modifications: hypusine (co-expressed with the modifying enzymes; position not given)
- Ki [5]: 9 nM
- Ki in the presence of saturating eEF2 [8]: 51 nM

B2: yeast eIF5A^C39A,K56A (natural protein)
chain: MSDEEHTFETADAGSSATYPMQCSALRKNGFVVIKSRPAKIVDMSTSKTGKHGHAAVHLVAIDIFTGKKLEDLSPSTHNMEVPVVKRNEYQLLDIDDGFLSLMNMDGDTKDDVKAPEGELGDSLQTAFDEGKDLMVTIISAMGEEAAISFKEAARTD
modifications: hypusine-containing (position not given)
- Ki [5]: 189 nM
- Ki in the presence of saturating eEF2 [8]: 454 nM

B3: yeast eIF5A^C39A,Q22H,L93F (natural protein)
chain: MSDEEHTFETADAGSSATYPMHCSALRKNGFVVIKSRPAKIVDMSTSKTGKHGHAKVHLVAIDIFTGKKLEDLSPSTHNMEVPVVKRNEYQLFDIDDGFLSLMNMDGDTKDDVKAPEGELGDSLQTAFDEGKDLMVTIISAMGEEAAISFKEAARTD
modifications: hypusine-containing (position not given)
- Ki [5]: 569 nM
- Ki in the presence of saturating eEF2 [8]: 539 nM
